Test results as given in patent US7341836B2, “Modified cyclic nucleotide gated ion channels” (The Regents of the University of Colorado, priority 2001, dated 2008).

Assays:
[1] = test system: PDE III; details: cited from earlier work
[2] = test system: PDE activity in GH4C1 cells; test: Effect of PDE inhibitors, forskolin and VIP on cAMP levels (Ca2+ influx through CNG channels); type: cell-based, rat; details: C460W/E583M channels
Description: To further test the utility of this approach, PDE activity in excitable GH4C1 pituitary cells was examined. In all of the experiments shown (See, FIGS. 13-14, and Table 2), 1 μM nimodipine was added at time zero to block Ca^2+ influx though voltage-gated Ca^2+ channels (triggered by membrane depolarization due to Ca^2+ and Na^+ influx through CNG channels). […] FIGS. 13 and 14 each depict experiments done on a single batch of cells. As before, similar results were obtained on three other batches. In the experiments that produced the data shown in Table 2, cAMP concentrations were monitored using Ca^2+ influx through C460W/E583M channels. […] Either 100 μM IBMX or vehicle (-IBMX; control) were added at time zero. Then, 50 μM forskolin were added at 180 seconds d(ΔF/F0)/dt, which is proportional to the Ca^2+ influx rate, was estimated as described in the Examples. Data are provided as mean±standard error. IBMX or vehicle was added at 60 seconds (first arrow in FIG. 13). Either 10 μM forskolin or 100 nM VIP were added at 240 seconds (second arrow in FIG. 13). In the absence of IBMX, large forskolin or VIP-induced increases in Ca^2+ influx were observed. […] This level of basal AC activity was quite different from that observed in HEK-293 cells (See, FIGS. 9 and 10). 1 μM nimodipine was added at time 0 to block endogenous voltage-gated Ca^2+ channels.
To identify the PDE family or families that regulate the local cAMP concentration in GH4C1 cells, cAMP accumulation was monitored in the presence and absence of PDE inhibitors (See, Table 2). Again, the high cAMP affinity C460W/E583M channels were used. PDE inhibitors were added at 60 s. Although the addition of IBMX alone triggered Ca^2+ influx, 10 μM forskolin were added at 240 s as a positive control for CNG channel activity. […] This PDE is likely to have a low Km for cAMP because it is capable of regulating cAMP at concentrations too low for the WT or Δ61-90/C460W/E583M channels to detect. Thus, it is contemplated that a Ca^2+-CaM stimulated PDE (type I) is primarily responsible for controlling basal cAMP signals in GH4C1 cells.
In addition, PDE activity was monitored using Δ61-90/C460W/E583M channels to detect changes in cAMP concentration (See, FIG. 14). PDE inhibitors and forskolin were added as described above. With this construct, it was not possible to observe changes in cAMP concentration due to inhibition of PDE activity alone. […] Inhibitors specific to other PDE types had no effect on the forskolin-induced Ca^2+ influx (data not shown). […] It is contemplated that Ca^2+ influx through the C460W/E583M channels was saturated at cAMP concentrations below the Km for this PDE. Thus, it is contemplated that there are two different PDE types that regulate local cAMP signals in GH4C1 cells: a low Km, 8-methoxymethyl-IBMX sensitive PDE (type I); and a high Km, RO-20-1724-, rolipram-sensitive PDE (type IV).
GH4C1 rat pituitary cells (ATCC) were maintained in 13 mL Ham's F-10 medium (Life Technologies) supplemented with 14.3 mM NaHCO3, 15% donor horse serum (Gemini), and 2.5% fetal bovine serum, pH 6.8, in 75 cm^2 flasks at 37° C. in a humidified atmosphere of 95% air and 5% CO2. Cells were split weekly (1:4) and washed with fresh medium twice weekly. Cells were plated at ˜60% confluence in 100 mm culture dishes twenty-four hours prior to infection with the CNG-channel-encoding adenovirus constructs (multiplicity of infection=50 plaque forming units per cell). Forty-eight hours post-infection cells were detached, resuspended in serum-containing medium, and assayed within 12 hours.
In this Example, experiments conducted to examine the response of excitable GH4C1 pituitary cells to stimulation by either forskolin or the hormone vasoactive intestinal peptide (VIP), in the presence of absence of PDE inhibitors are described. […]

[3] = test system: HEK-293 cells expressing CNG channels; test: Forskolin-induced cAMP accumulation monitored by Ca2+ influx (fura-2) through expressed CNG channels; type: cell-based, human
Description: Next, experiments were conducted to assess the ability of each channel construct to detect increases in local cAMP concentration. Changes in cAMP concentration were detected using fura-2 to monitor Ca^2+ influx through CNG channels, as described in the Examples. Ca^2+ influx induced by different concentrations of forskolin, an AC activator, in the presence of 100 μM IBMX, a nonselective PDE inhibitor was measured. This approach allowed comparisons to be made between the cAMP sensitivities of the different channels to changes in cAMP, regardless of variations in expression levels between experiments. In HEK-293 cells expressing the WT channel, addition of forskolin was followed by a brief delay and an increase in Ca^2+ influx (See, FIG. 7, Panel A). The delay decreased and the rate of Ca^2+ influx increased in a dose-dependent manner. Neither effect was saturated at 50 μM forskolin. In cells expressing the E583M channel, addition of forskolin was also followed by a brief delay and an increase in Ca^2+ influx (FIG. 7, Panel B). As with the WT channel, the delay and the initial rate of Ca^2+ influx were dose-dependent. […] In cells expressing the Δ61-90/C460W/E583M channel, addition of forskolin caused similar increases in Ca^2+ influx as the E583M channel, including saturation of the delay and rate of influx at 20 μM (compare FIG. 7, Panel B with FIG. 7, Panel D). The increased response of the modified channels to forskolin treatment is consistent with the apparent cAMP affinities measured in excised patches in the absence of Ca^2+-CaM (C460W/E583M>E583M˜Δ61-90/C460W/E583>WT channels). There are several factors that may have contributed to the apparent lack of a Ca^2+-CaM effect on the channels.
Briefly, HEK-293 were maintained in MEM (Life Technologies Inc.) supplemented with 26.2 mM NaHCO3, 10% (v/v) fetal bovine serum (Gemini), penicillin (50 μg/mL), and streptomycin ([…]), pH 7.0, at 37° C. in a humidified atmosphere of 95% air and 5% CO2. Cells were plated at ˜60% confluence in 100 mm culture dishes twenty-four hours prior to infection with the CNG-channel-encoding adenovirus constructs (multiplicity of infection=10 plaque forming units per cell). […] Twenty-four hours post-infection cells were detached with phosphate-buffered saline containing 0.03% EDTA, resuspended in serum-containing medium, and assayed within 12 hours.

[4] = test system: rat olfactory CNG channel α subunit; test: Excised inside-out patch recordings, cyclic nucleotide dose-response of CNG channel constructs; type: biochemical; details: for Imax^cGMP/Imax^cAMP: current at saturating cGMP divided by current at saturating cAMP
Description: As described in greater detail herein, the effects of modifications to CNG channels were assessed using the Hill equation, I/Imax=[cNMP]^N/([cNMP]^N+K1/2^N), where I/Imax is the fraction of maximal current, cNMP represents cyclic nucleotide, K1/2 is the concentration that gives half-maximal current, and N is the Hill coefficient, an index of cooperativity. I/Imax^cGMP/Imax^cAMP is the current induced by saturating cGMP divided by the current induced by saturating cAMP. Data (mean±standard deviation of three experiments) were obtained from excised membrane patches using standard patch clamp techniques.
To assess the cyclic nucleotide sensitivity of different CNG channel constructs, excised, inside-out patch recordings were made at room temperature (20-21° C.) using an Axopatch-200A patch clamp amplifier (Axon Instruments Inc.). Pipettes were pulled from borosilicate glass and heat polished. Pipettes were lowered onto the cells and gigaohm seals were formed. Patches were excised by shearing cells from the pipette with a jet of liquid. Ionic currents were elicited by 250 ms pulses to membrane potentials of +50 and −50 mV from a holding potential of 0 mV. Current records were sampled at five times the filter setting and stored on an IBM compatible computer. Records were corrected for errors due to series resistance (pipette resistance was 4.1 ±0.1 MΩ). Both the pipette and bath solutions contained (mM): 130 NaCl, 2 HEPES, 0.02 EDTA, and 1 EGTA, pH 7.6. Cyclic nucleotide-induced currents were obtained from the difference between currents in the presence and absence of cyclic nucleotides. Dose response curves for cAMP and cGMP were obtained at +50 and −50 mV in the same patch. The effects of the modifications were assessed using the Hill equation, I/Imax=[cNMP]^N/([cNMP]^N+K1/2^N), where I/Imax is the fraction of maximal current, cNMP represents cyclic nucleotide, K1/2 is the concentration that gives half-maximal current, and N is the Hill coefficient, an index of cooperativity. K1/2 and N for cAMP were 36±5 μM, 10±2 μM, 1.0±0.3 μM, and […] for WT, E583M, C460/E583M, and Δ61-90/C460W/E583M channels, respectively (See, Rich et al., J. Gen. Physiol. [2001], supra).
The cyclic nucleotide sensitivity of the C460W/E583M CNG channel was assessed in excised, inside-out patches as known in the art (See, Rich et al. [2001], supra). K1/2 and N were 1.1±0.3 μM and 2.1±0.4 at +50 mV; and 1.0±0.3 μM and 2.0 ±0.3 at −50 mV (n=11). With these values, the cAMP concentration could be calculated from currents measured in perforated patch experiments (Rich et al. Proc. Natl. Acad. Sci. [2001], supra).

C[C@@H]1C(=O)NC2=Nc3cccc(Cl)c3CN21 [Quazinone]
IC50 [1]: 600 nM | d(ΔF/F0)/dt ([2]; basal cAMP, inhibitor concentration (μM)): 0 s⁻¹

C=C[C@@]1(C)CC(=O)[C@]2(O)[C@@]3(C)[C@@H](O)CCC(C)(C)[C@@H]3[C@H](O)[C@H](OC(C)=O)[C@@]2(C)O1 [forskolin]
forskolin-induced increase in cAMP concentration averaged throughout the accessible cell volume [3]: 1 to 2 µM | forskolin-induced increase in cAMP concentration measured using CNG channels ([3]; local, near plasma membrane): > 25 µM

vasoactive intestinal peptide [VIP]
cAMP accumulation and Ca2+ influx after AC stimulation ([2]; 10 μM forskolin or 100 nM VIP after IBMX or vehicle): caused additional cAMP accumulation and Ca^2+ influx

B1: E583M: modified rat olfactory cyclic nucleotide-gated ion channel containing the E583M mutation, SEQ ID NO:5 (protein, listed as Rattus norvegicus)
chain: MMTEKSNGVKSSPANNHNHHPPPSIKANGKDDHRAGSRPQSVAADDDTSPELQRLAEMDTPRRGRGGFQRIVRLVGVIRDWANKNFREEEPRPDSFLERFRGPELQTVTTHQGDDKGGKDGEGKGTKKKFELFVLDPAGDWYYRWLFVIAMPVLYNWCLLVARACFSDLQRNYFVVWLVLDYFSDTVYIADLIIRLRTGFLEQGLLVKDPKKLRDNYIHTLQFKLDVASIIPTDLIYFAVGIHSPEVRFNRLLHFARMFEFFDRTETRTSYPNIFRISNLVLYILVIIHWNACIYYVISKSIGFGVDTWVYPNITDPEYGYLAREYIYCLYWSTLTLTTIGETPPPVKDEEYLFVIFDFLIGVLIFATIVGNVGSMISNMNATRAEFQAKIDAVKHYMQFRKVSKDMEAKVIKWFDYLWTNKKTVDEREVLKNLPAKLRAEIAINVHLSTLKKVRIFQDCEAGLLVELVLKLRPQVFSPGDYICRKGDIGKEMYIIKEGKLAVVADDGVTQYALLSAGSCFGEISILNIKGSKMGNRRTANIRSLGYSDLFCLSKDDLMEAVTEYPDAKKVLEERGREILMKMGLLDENEVAASMEVDVQEKLEQLETNMDTLYTRFARLLAEYTGAQQKLKQRITVLETKMKQNHEDDYLSDGINTPEPTAAE
forskolin concentration at which delay and rate of Ca2+ influx saturated ([3]; 100 μM IBMX, forskolin 0-50 μM): 20 µM | Imax^cGMP/Imax^cAMP ([4]; +50 mV): 0.40 ± 0.10 | Imax^cGMP/Imax^cAMP ([4]; −50 mV): 0.35 ± 0.16 | current elicited by saturating cGMP as % of the current elicited by saturating cAMP ([4]; excised patches): ~40%

B2: WT: wild-type rat olfactory cyclic nucleotide gated channel α subunit, amino acid sequence SEQ ID NO:8 (protein, listed as Rattus norvegicus)
chain: MMTEKSNGVKSSPANNHNHHPPPSIKANGKDDHRAGSRPQSVAADDDTSPELQRLAEMDTPRRGRGGFQRIVRLVGVIRDWANKNFREEEPRPDSFLERFRGPELQTVTTHQGDDKGGKDGEGKGTKKKFELFVLDPAGDWYYRWLFVIAMPVLYNWCLLVARACFSDLQRNYFVVWLVLDYFSDTVYIADLIIRLRTGFLEQGLLVKDPKKLRDNYIHTLQFKLDVASIIPTDLIYFAVGIHSPEVRFNRLLHFARMFEFFDRTETRTSYPNIFRISNLVLYILVIIHWNACIYYVISKSIGFGVDTWVYPNITDPEYGYLAREYIYCLYWSTLTLTTIGETPPPVKDEEYLFVIFDFLIGVLIFATIVGNVGSMISNMNATRAEFQAKIDAVKHYMQFRKVSKDMEAKVIKWFDYLWTNKKTVDEREVLKNLPAKLRAEIAINVHLSTLKKVRIFQDCEAGLLVELVLKLRPQVFSPGDYICRKGDIGKEMYIIKEGKLAVVADDGVTQYALLSAGSCFGEISILNIKGSKMGNRRTANIRSLGYSDLFCLSKDDLMEAVTEYPDAKKVLEERGREILMKEGLLDENEVAASMEVDVQEKLEQLETNMDTLYTRFARLLAEYTGAQQKLKQRITVLETKMKQNHEDDYLSDGINTPEPTAAE
Imax^cGMP/Imax^cAMP ([4]; +50 mV): 1.0 | Imax^cGMP/Imax^cAMP ([4]; −50 mV): 1.0
